Data published in patent publication EP2727942A1.
One block for each binder: values may come before it.

Legend:
[1] = molecular target: recombinant Fc chimeric conjugate of human EGFR (human) (UniProt P00533); experiment: ELISA, coated antigen, B-cell supernatant, IgG 146,1 ng/ml
[2] = molecular target: recombinant Fc chimeric conjugate of human HER3 (human) (UniProt P21860); experiment: as above
[3] = molecular target: recombinant Fc chimeric conjugate of human EGFR (human) (UniProt P00533); experiment: ELISA, coated antigen, B-cell supernatant, IgG 565,3 ng/ml
[4] = molecular target: recombinant Fc chimeric conjugate of human HER3 (human) (UniProt P21860); experiment: as above
[5] = molecular target: recombinant Fc chimeric conjugate of human EGFR (human) (UniProt P00533); experiment: ELISA, coated antigen, B-cell supernatant, IgG 59,9 ng/ml
[6] = molecular target: recombinant Fc chimeric conjugate of human HER3 (human) (UniProt P21860); experiment: as above
[7] = molecular target: recombinant Fc chimeric conjugate of human EGFR (human) (UniProt P00533); experiment: ELISA, coated antigen, B-cell supernatant, IgG 1912,4 ng/ml
[8] = molecular target: recombinant Fc chimeric conjugate of human HER2 (human) (UniProt P04626); experiment: as above
[9] = molecular target: recombinant Fc chimeric conjugate of human EGFR (human) (UniProt P00533); experiment: ELISA, coated antigen, B-cell supernatant, IgG 250,4 ng/ml
[10] = molecular target: recombinant Fc chimeric conjugate of human HER3 (human) (UniProt P21860); experiment: as above
[11] = molecular target: recombinant Fc chimeric conjugate of human EGFR (human) (UniProt P00533); experiment: ELISA, coated antigen, B-cell supernatant, IgG 1170,2 ng/ml
[12] = molecular target: recombinant Fc chimeric conjugate of human HER3 (human) (UniProt P21860); experiment: as above
[13] = molecular target: recombinant Fc chimeric conjugate of human EGFR (human) (UniProt P00533); experiment: ELISA, coated antigen, B-cell supernatant, IgG 1143,3 ng/ml
[14] = molecular target: recombinant Fc chimeric conjugate of human HER2 (human) (UniProt P04626); experiment: as above

Chain of UniProt P21860 (P21860 20-643, change not shown): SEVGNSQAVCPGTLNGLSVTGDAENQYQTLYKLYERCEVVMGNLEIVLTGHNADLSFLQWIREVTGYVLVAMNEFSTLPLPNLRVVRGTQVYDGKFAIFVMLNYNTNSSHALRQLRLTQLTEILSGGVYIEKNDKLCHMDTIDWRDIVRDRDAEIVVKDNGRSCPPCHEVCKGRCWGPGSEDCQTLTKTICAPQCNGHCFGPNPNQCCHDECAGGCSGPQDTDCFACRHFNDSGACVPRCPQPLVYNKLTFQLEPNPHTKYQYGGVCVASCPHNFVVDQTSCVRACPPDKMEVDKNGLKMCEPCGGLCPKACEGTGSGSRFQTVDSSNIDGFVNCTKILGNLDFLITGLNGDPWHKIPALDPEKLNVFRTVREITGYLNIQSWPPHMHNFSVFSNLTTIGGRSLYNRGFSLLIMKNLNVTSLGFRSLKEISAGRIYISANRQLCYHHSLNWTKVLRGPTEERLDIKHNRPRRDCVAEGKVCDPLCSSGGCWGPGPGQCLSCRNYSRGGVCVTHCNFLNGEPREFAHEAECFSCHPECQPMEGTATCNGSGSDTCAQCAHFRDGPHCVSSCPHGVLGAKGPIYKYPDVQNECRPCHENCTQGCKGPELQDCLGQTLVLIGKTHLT

Optical density (OD) [1]: 2.7 OD
Optical density (OD) [2]: 2.1 OD
B1: Antibody 52 (antibody, V domains shown)
VH: QSVEESGGRLVTPGTALTLTCTVSGFSLSSGDMSWVRQAPGKGLEWIGYIWSGVSTYYANWAKGRFTISKTSSTTVDLKMTSLTIEDTATYFCARVDFYSYVYSLWGPGTLVTVSS
VL: ALVMTQTPASVEAAVGGTVTIKCQASQSISSCLAWYQQKPGQPPKLLIYSASTLASGVPSRFKGSGSGTEYTLTISGVECADAATYYCQQHYTSNNIDNAFGGGTEVVVK

Optical density (OD) [3]: 3.4 OD
Optical density (OD) [4]: 3.1 OD
B2: Antibody 56 (antibody, V domains shown)
VH: QSLEESGGRLVTPGTPLTLTCTASGFSLSSYDLSWVRQAPGKGLEWIAYIWSGDKTYYANWAKGRFTISKTSSTTVDLKMTSLTTEDTATYFCATVNIYSYVYSLWGPGTLVTVSS
VL: AYDMTQTPASVEVAVGGTVTIKCQASQSISTALAWYQQKSGQPPKLLIYLASTLASGVPSRFKGSGSGTEYTLTISGVECADAATYYCQQHYSSNNVDNAFGGGTEVVVK

Optical density (OD) [5]: 2.8 OD
Optical density (OD) [6]: 1 OD
B3: Antibody 60 (antibody, V domains shown)
VH: QSLEESGGRLVTPGGSLTLTCTVSGSDISSYDMSWVRQAPGKGLEWIGYIWSGTTTYYANWAKGRFTISKTSSTTVDLKMTSLTTEDTATYFCATVNIYTYVYSLWGPGTLVTVSS
VL: AYDMTQTPASVEVAVGGTVTIKCQASQSISTALAWYQQKSGQPPKLLIYLASTLASGVPSRFKGSGSGTEYTLTISGVECADAATYYCQQHYSGNNVDNAFGGGTEVVVK

Optical density (OD) [9]: 2.7 OD
Optical density (OD) [10]: 3.3 OD
B5: Antibody 55 (antibody, V domains shown)
VH: QSLEESGGRLVTPGGSLTLTCTVSGSDISSYDMSWVRQAPGKGLEWIGYIWSGTTIYYASWPKGRFTISKTSSTTVDLKMTSLTTEDTATYFCAAINIYTYVYSLWGPGTLVTVSS
VL: AYDMTQTPASVEAAVGGTVTIKCQASESIYSSLAWYQQKSGQPPKLLIYLASTLASGVPSRFKGSGSGTDYTLTISGVECADAATYYCQQHYSGSNVDNAFGGGTEVVVK

More lines, now with the values behind:

B4: Antibody 6 (antibody, V domains shown)
VH: QSVEESGGRLVTPGTPLTLTCTVSGFSLSSYTMGWVRQAPGKGLEYIGIINTGGYTYYASWAKGRFTISRTSTTVDLSMTSLTTEDTATYFCARVYPGSSCDLWGQGTLVTVSS
VL: DVVMTQTPASVSEPVGGTVTIKCQASQSISSSYLSWYQQKPGQPPKLLIYRASTLESGVPSRFKGSGSGTEFTLTISDLECADAATYYCQCTDYAGSYVGGAFGGGTEVVVK
Optical density (OD) [7]: 0.4 OD
Optical density (OD) [8]: 3.2 OD

B6: Antibody 32 (antibody, V domains shown)
VH: QSVEESGGRLVTPGTPLTLTCTVSGFSLSSYDMSWVRQAPGKGLEWIGFIDGDSNTYDATWAKGRFTISKTSTTVDLKITSPTTEDTATYFCTRGFNLWGQGTLVTVSS
VL: DVVMTQTPASVSEPVGGTVTIKCQASQSISSYLAWYQQKPGQPPKLLIYKASTLASGVSSRFKGSGSGTEFTLTISDLECADAATYYCQCSAGGRSGIGGFGGGTEVVVK
Optical density (OD) [11]: 0.3 OD
Optical density (OD) [12]: 2.3 OD

B7: Antibody 34 (antibody, V domains shown)
VH: QEQLVESGGGLVQPEGSLTLTCKASGFSFSSGYYMCWVRQAPGKGLEWIACIYADSSESTYYASWAKGRFTISKTSSTTVTLQVTSLTAADTATYFCARWGTVAGYSTFNLWGPGTLVTVSS
VL: DVVMTQTPASVSEPVGGTVTIKCQASQSISTALAWYQQKPGQPPKLLIYFTSTLASGVSSRFKGSGSGAEFTLTISDLECADAATYYCQGYYYVTNFPFGGGTEVVVK
Optical density (OD) [13]: 0.3 OD
Optical density (OD) [14]: 3.1 OD
